From the supplement of paper PMC9876800

Test system: peptide library, one residue held at a place counted from the S/T acceptor
Assay: relative phosphorylation of the sub-library (ratio to the mean residue at this position); higher = residue favoured
In short: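 Purified recombinant kinases, either human or orthologue constructs, were incubated in 384-well plates with biotinylated degenerate peptide sub-libraries. Each sub-library fixed one residue at one position around a central Ser/Thr. Peptides at 50 μM and 50 μM ATP spiked with γ-32P-ATP were used for 90 min under kinase-specific conditions, and spots on streptavidin membranes were phosphorimaged and quantified by densitometry. Relative sub-library phosphorylation is expressed as a ratio to the mean residue at that position.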

Chain of DAPK2, construct: Full length, human (Q9UIK4 whole entry, looked up): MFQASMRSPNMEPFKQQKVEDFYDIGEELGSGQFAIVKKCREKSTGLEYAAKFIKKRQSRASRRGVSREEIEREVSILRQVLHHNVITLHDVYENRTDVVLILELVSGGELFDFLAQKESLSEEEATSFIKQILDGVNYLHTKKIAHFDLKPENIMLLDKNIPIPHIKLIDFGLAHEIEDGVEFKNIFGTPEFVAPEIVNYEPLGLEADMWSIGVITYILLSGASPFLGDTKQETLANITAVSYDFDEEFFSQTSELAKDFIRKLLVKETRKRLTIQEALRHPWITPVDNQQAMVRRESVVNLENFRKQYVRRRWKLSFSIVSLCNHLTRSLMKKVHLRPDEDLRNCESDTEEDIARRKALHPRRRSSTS
Chain of HASPIN, construct: aa452-798, human (Q8TF76 452-798, looked up): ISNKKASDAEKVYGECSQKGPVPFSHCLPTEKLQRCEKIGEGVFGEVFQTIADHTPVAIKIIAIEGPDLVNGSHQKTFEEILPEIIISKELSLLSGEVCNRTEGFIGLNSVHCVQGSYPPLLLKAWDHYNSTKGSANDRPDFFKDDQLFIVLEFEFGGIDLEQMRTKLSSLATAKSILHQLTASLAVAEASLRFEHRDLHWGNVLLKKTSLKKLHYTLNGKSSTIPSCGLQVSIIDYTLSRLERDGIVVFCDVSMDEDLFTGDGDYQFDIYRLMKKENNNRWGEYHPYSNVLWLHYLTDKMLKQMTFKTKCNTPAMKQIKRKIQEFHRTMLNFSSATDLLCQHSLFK
Chain of GSK3B, construct: Full length, human (P49841 whole entry, looked up): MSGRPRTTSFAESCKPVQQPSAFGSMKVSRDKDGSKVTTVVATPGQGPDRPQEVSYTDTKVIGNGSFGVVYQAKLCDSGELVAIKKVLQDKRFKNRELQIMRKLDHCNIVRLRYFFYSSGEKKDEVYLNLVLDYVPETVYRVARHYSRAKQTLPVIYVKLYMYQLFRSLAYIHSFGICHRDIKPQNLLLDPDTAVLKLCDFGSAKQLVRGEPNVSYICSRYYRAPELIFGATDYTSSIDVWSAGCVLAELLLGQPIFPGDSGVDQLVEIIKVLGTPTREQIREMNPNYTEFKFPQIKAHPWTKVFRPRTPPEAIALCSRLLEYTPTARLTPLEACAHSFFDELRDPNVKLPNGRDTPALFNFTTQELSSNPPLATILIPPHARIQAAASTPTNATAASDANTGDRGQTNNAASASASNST

DAPK2, construct: Full length, human (from UniProt Q9UIK4)
relative phosphorylation
Conditions | at +1 | at +2 | at +3 | at +4 | at -1 | at -2 | at -3 | at -4 | at -5
A fixed | 0.947 | 0.886 | 0.931 | 0.893 | 0.907 | 1.2 | 0.902 | 1.03 | 1.03
D fixed | 1.24 | 0.825 | 0.801 | 0.816 | 0.878 | 0.624 | 0.608 | 0.797 | 0.77
E fixed | 1.3 | 0.846 | 0.813 | 0.758 | 0.71 | 0.591 | 0.558 | 0.795 | 0.703
F fixed | 0.985 | 1.1 | 0.998 | 1.22 | 0.902 | 0.704 | 0.778 | 1.03 | 1.02
G fixed | 1.02 | 0.895 | 1.01 | 0.933 | 0.983 | 0.869 | 0.846 | 1.02 | 1.08
H fixed | 0.861 | 0.962 | 0.951 | 1.22 | 0.992 | 1.08 | 0.869 | 0.967 | 0.926
I fixed | 0.909 | 1.02 | 1.6 | 1.02 | 0.854 | 0.645 | 0.697 | 0.888 | 0.955
K fixed | 0.739 | 0.891 | 0.842 | 0.837 | 1.22 | 1.23 | 1.59 | 1.12 | 1.09
L fixed | 0.863 | 1.34 | 1.27 | 0.995 | 1.2 | 0.725 | 0.754 | 0.949 | 1.06
M fixed | 1.04 | 1.34 | 0.968 | 0.882 | 1.03 | 0.739 | 0.758 | 0.964 | 0.99
N fixed | 1.25 | 0.913 | 0.852 | 0.912 | 1.25 | 0.855 | 0.666 | 0.97 | 0.839
P fixed | 0.736 | 1.04 | 0.983 | 1.09 | 1.11 | 0.775 | 0.881 | 1.04 | 1.08
Q fixed | 1.77 | 0.983 | 0.878 | 0.927 | 0.995 | 0.838 | 0.716 | 0.915 | 0.869
R fixed | 0.838 | 1.05 | 1 | 0.958 | 1.21 | 3.71 | 3.95 | 1.45 | 1.47
V fixed | 0.91 | 0.948 | 1.15 | 0.973 | 0.916 | 0.688 | 0.674 | 0.894 | 0.92
W fixed | 0.79 | 0.943 | 1 | 1.39 | 0.856 | 0.961 | 0.898 | 1.06 | 0.98
Y fixed | 0.797 | 1.02 | 0.948 | 1.18 | 0.994 | 0.765 | 0.861 | 1.11 | 1.23
pThr fixed | 1.74 | 1.06 | 0.929 | 0.994 | 0.74 | 0.649 | 0.685 | 0.818 | 0.831
pTyr fixed | 1.15 | 1.02 | 1.16 | 1.04 | 0.969 | 0.696 | 0.682 | 0.811 | 0.827

GSK3B, construct: Full length, human (from UniProt P49841)
relative phosphorylation
Conditions | at +1 | at +2 | at +3 | at +4 | at -1 | at -2 | at -3 | at -4 | at -5
A fixed | 0.927 | 1.01 | 0.893 | 0.871 | 1.05 | 1.09 | 1.63 | 1.02 | 1.15
D fixed | 0.826 | 0.857 | 0.911 | 0.938 | 0.885 | 0.92 | 0.898 | 0.969 | 0.83
E fixed | 0.818 | 0.917 | 1.23 | 2.42 | 0.855 | 0.898 | 0.865 | 0.851 | 0.83
F fixed | 0.942 | 1.05 | 1.06 | 0.871 | 0.863 | 0.855 | 0.812 | 0.918 | 1.05
G fixed | 0.928 | 0.92 | 0.966 | 0.843 | 1.17 | 1.1 | 1.47 | 1.18 | 1.21
H fixed | 0.985 | 1.16 | 1.1 | 0.988 | 1.02 | 0.885 | 0.883 | 0.989 | 1.02
I fixed | 1.02 | 0.984 | 0.929 | 0.795 | 0.889 | 1.01 | 0.871 | 0.913 | 1
K fixed | 1.02 | 1.02 | 1.01 | 0.983 | 1.1 | 1.12 | 0.935 | 1.11 | 0.979
L fixed | 0.966 | 0.994 | 0.923 | 0.849 | 0.916 | 0.882 | 0.785 | 0.966 | 1.03
M fixed | 0.975 | 0.99 | 1.06 | 0.911 | 1.08 | 0.882 | 0.891 | 0.943 | 0.968
N fixed | 0.963 | 1.12 | 0.983 | 0.992 | 1.04 | 0.935 | 0.899 | 1.02 | 0.855
P fixed | 1.77 | 0.904 | 0.972 | 0.942 | 1.18 | 1.23 | 1.13 | 1.08 | 1.1
Q fixed | 1 | 1.09 | 0.986 | 0.92 | 1.09 | 0.931 | 0.889 | 0.942 | 0.895
R fixed | 1.01 | 1.05 | 1.05 | 0.848 | 1.06 | 1.48 | 1.36 | 1.06 | 0.973
V fixed | 1.02 | 0.908 | 0.887 | 0.8 | 0.916 | 0.977 | 0.904 | 0.982 | 1.04
W fixed | 0.977 | 1.01 | 0.997 | 1.03 | 0.962 | 0.957 | 0.913 | 1.05 | 1.08
Y fixed | 0.854 | 1.01 | 1.04 | 1 | 0.931 | 0.846 | 0.866 | 1.02 | 0.997
pThr fixed | 1.01 | 1 | 3.53 | 66.5 | 0.946 | 1.02 | 1.15 | 1.16 | 0.927
pTyr fixed | 1.14 | 1.04 | 2.26 | 2.62 | 1.66 | 1.13 | 1 | 1.15 | 0.929

HASPIN, construct: aa452-798, human (from UniProt Q8TF76)
relative phosphorylation
Conditions | at +1 | at +2 | at +3 | at +4 | at -1 | at -2 | at -3 | at -4 | at -5
A fixed | 0.379 | 1.04 | 0.824 | 0.822 | 0.515 | 2.18 | 0.883 | 0.899 | 0.836
D fixed | 0.166 | 0.469 | 0.344 | 0.766 | 0.155 | 0.679 | 0.544 | 0.634 | 0.517
E fixed | 0.161 | 0.359 | 0.28 | 0.404 | 0.158 | 0.483 | 0.577 | 0.767 | 0.526
F fixed | 0.587 | 0.877 | 0.984 | 0.829 | 0.354 | 0.76 | 0.749 | 0.936 | 0.812
G fixed | 0.467 | 0.751 | 1.02 | 1.03 | 0.615 | 1.17 | 1.1 | 0.985 | 0.887
H fixed | 0.682 | 1.36 | 1.09 | 1.14 | 0.606 | 0.783 | 1.11 | 0.964 | 1.01
I fixed | 0.779 | 0.69 | 0.652 | 0.819 | 0.286 | 0.734 | 0.693 | 0.844 | 2.68
K fixed | 5.48 | 1.95 | 1.81 | 2.09 | 1.5 | 1.39 | 1.92 | 1.39 | 1.23
L fixed | 0.621 | 0.783 | 0.797 | 0.749 | 0.294 | 0.464 | 0.694 | 1.54 | 0.645
M fixed | 0.766 | 1.56 | 0.782 | 1.01 | 0.42 | 0.47 | 0.644 | 0.933 | 0.777
N fixed | 0.295 | 0.762 | 0.801 | 0.86 | 0.427 | 0.737 | 0.941 | 0.738 | 0.763
P fixed | 0.807 | 0.559 | 0.714 | 0.801 | 0.493 | 1.83 | 1.12 | 0.987 | 1.32
Q fixed | 0.469 | 1.19 | 0.819 | 1 | 0.591 | 0.672 | 0.834 | 0.974 | 0.722
R fixed | 2.67 | 1.78 | 3.05 | 1.65 | 9.3 | 1.83 | 2.79 | 1.57 | 1.33
V fixed | 0.622 | 0.657 | 0.731 | 0.714 | 0.285 | 1.27 | 0.768 | 0.951 | 0.982
W fixed | 0.51 | 1.25 | 1.09 | 1.33 | 0.313 | 0.749 | 0.82 | 0.918 | 0.922
Y fixed | 1.54 | 0.971 | 1.21 | 0.979 | 0.683 | 0.809 | 0.807 | 0.969 | 1.05
pThr fixed | 0.315 | 0.44 | 0.466 | 0.648 | 0.379 | 1.23 | 1.14 | 0.928 | 0.991
pTyr fixed | 0.322 | 0.359 | 0.492 | 0.589 | 0.582 | 0.966 | 1.09 | 0.743 | 1.01
